# B1: Speckle-type POZ protein (Homo sapiens), O43791 (parent)
# chain: MSRVPSPPPPAEMSSGPVAESWCYTQIKVVKFSYMWTINNFSFCREEMGEVIKSSTFSSGANDKLKWCLRVNPKGLDEESKDYLSLYLLLVSCPKSEVRAKFKFSILNAKGEETKAMESQRAYRFVQGKDWGFKKFIRRDFLLDEANGLLPDDKLTLFCEVSVVQDSVNISGQNTMNMVKVPECRLADELGGLWENSRFTDCCLCVAGQEFQAHKAILAARSPVFSAMFEHEMEESKKNRVEINDVEPEVFKEMMCFIYTGKAPNLDKMADDLLAAADKYALERLKVMCEDALCSNLSVENAAEILILADLHSADQLKTQAVDFINYHASDVLETSGWKSMVVSHPHLVAEAYRSLASAQCPFLGPPRKRLKQS
# Variants of: B1
# Conditions: with brd4_human BRD4, O60885
row,Variant,effect of a mutation on the interaction
1,Y87C,disrupting interaction strength

# Variants of: B1
# Conditions: with ncoa3_human NCOA3, Q9Y6Q9
row,Variant,effect of a mutation on the interaction
1,Y87C,disrupting interaction strength

# Variants of: B1
# Conditions: with jun_human JUN
row,Variant,effect of a mutation on the interaction
1,Y87C,disrupting interaction strength

# Variants of: B1
# Conditions: with akt1_human AKT1, P31749
row,Variant,effect of a mutation on the interaction
1,Y87C,with no effect

# Variants of: B1
# Conditions: with alk_human ALK
row,Variant,effect of a mutation on the interaction
1,Y87C,with no effect

# Variants of: B1
# Conditions: with aph1a_human APH1A
row,Variant,effect of a mutation on the interaction
1,Y87C,with no effect

# Variants of: B1
# Conditions: with arnt_human ARNT
row,Variant,effect of a mutation on the interaction
1,Y87C,with no effect

# Variants of: B1
# Conditions: with arc1a_human ARPC1A
row,Variant,effect of a mutation on the interaction
1,Y87C,with no effect

# Variants of: B1
# Conditions: with asxl2_human ASXL2, Q76L83
row,Variant,effect of a mutation on the interaction
1,Y87C,with no effect

# Variants of: B1
# Conditions: with bakor_human ATG14, Q6ZNE5
row,Variant,effect of a mutation on the interaction
1,Y87C,with no effect

# Variants of: B1
# Conditions: with atm_human ATM
row,Variant,effect of a mutation on the interaction
1,Y87C,with no effect

# Variants of: B1
# Conditions: with atpb_human ATP5F1B
row,Variant,effect of a mutation on the interaction
1,Y87C,with no effect

# Variants of: B1
# Conditions: with aurkb_human AURKB
row,Variant,effect of a mutation on the interaction
1,Y87C,with no effect

# Variants of: B1
# Conditions: with axin2_human AXIN2, Q9Y2T1
# Sequence of axin2_human AXIN2, Q9Y2T1 (Q9Y2T1 whole entry): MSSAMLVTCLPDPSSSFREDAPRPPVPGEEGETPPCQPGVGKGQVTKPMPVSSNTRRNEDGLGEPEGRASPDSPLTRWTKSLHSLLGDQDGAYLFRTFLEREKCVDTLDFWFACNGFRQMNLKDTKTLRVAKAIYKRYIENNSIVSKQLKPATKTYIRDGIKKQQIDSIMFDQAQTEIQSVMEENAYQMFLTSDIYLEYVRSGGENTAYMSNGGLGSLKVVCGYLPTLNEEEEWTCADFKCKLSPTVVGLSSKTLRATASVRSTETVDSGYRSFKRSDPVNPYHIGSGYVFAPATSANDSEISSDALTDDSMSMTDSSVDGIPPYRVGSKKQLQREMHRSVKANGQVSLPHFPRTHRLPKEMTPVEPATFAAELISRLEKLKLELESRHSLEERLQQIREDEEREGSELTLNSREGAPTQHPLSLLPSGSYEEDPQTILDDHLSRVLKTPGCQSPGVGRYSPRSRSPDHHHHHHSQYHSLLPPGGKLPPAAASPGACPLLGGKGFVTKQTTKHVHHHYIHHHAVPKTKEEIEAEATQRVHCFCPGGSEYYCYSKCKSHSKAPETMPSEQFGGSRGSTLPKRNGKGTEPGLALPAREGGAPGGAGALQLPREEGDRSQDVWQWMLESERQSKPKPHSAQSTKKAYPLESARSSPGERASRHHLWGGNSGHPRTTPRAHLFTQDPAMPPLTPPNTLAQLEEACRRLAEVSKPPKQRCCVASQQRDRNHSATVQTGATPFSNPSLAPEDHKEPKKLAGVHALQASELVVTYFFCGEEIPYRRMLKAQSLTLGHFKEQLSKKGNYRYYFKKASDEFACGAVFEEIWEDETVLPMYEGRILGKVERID
row,Variant,effect of a mutation on the interaction
1,Y87C,with no effect

# Variants of: B1
# Conditions: with ufo_human AXL
row,Variant,effect of a mutation on the interaction
1,Y87C,with no effect

# Variants of: B1
# Conditions: with za2g_human AZGP1, P25311
row,Variant,effect of a mutation on the interaction
1,Y87C,with no effect

# Variants of: B1
# Conditions: with b2mg_human B2M
row,Variant,effect of a mutation on the interaction
1,Y87C,with no effect

# Variants of: B1
# Conditions: with bap1_human BAP1, Q92560
row,Variant,effect of a mutation on the interaction
1,Y87C,with no effect

# Variants of: B1
# Conditions: with bcor_human BCOR
row,Variant,effect of a mutation on the interaction
1,Y87C,with no effect

# Variants of: B1
# Conditions: with bcorl_human BCORL1, Q5H9F3
row,Variant,effect of a mutation on the interaction
1,Y87C,with no effect

# Variants of: B1
# Conditions: with birc2_human BIRC2, Q13490
row,Variant,effect of a mutation on the interaction
1,Y87C,with no effect

# Variants of: B1
# Conditions: with brd4_human BRD4, O60885
# Remark: another data set of the same source
row,Variant,effect of a mutation on the interaction
1,Y87C,with no effect

# Variants of: B1
# Conditions: with baba2_human BABAM2, Q9NXR7
row,Variant,effect of a mutation on the interaction
1,Y87C,with no effect

# Variants of: B1
# Conditions: with btg1_human BTG1, P62324
row,Variant,effect of a mutation on the interaction
1,Y87C,with no effect

# Variants of: B1
# Conditions: with ccnd1_human CCND1, P24385
row,Variant,effect of a mutation on the interaction
1,Y87C,with no effect

# Variants of: B1
# Conditions: with ccnd2_human CCND2, P30279
row,Variant,effect of a mutation on the interaction
1,Y87C,with no effect

# Variants of: B1
# Conditions: with ccnd3_human CCND3, P30281
row,Variant,effect of a mutation on the interaction
1,Y87C,with no effect

# Variants of: B1
# Conditions: with ccne1_human CCNE1, P24864
row,Variant,effect of a mutation on the interaction
1,Y87C,with no effect

# Variants of: B1
# Conditions: with cd44_human CD44, P16070
row,Variant,effect of a mutation on the interaction
1,Y87C,with no effect

# Variants of: B1
# Conditions: with cd79b_human CD79B
row,Variant,effect of a mutation on the interaction
1,Y87C,with no effect

# Variants of: B1
# Conditions: with cdc27_human CDC27, P30260
row,Variant,effect of a mutation on the interaction
1,Y87C,with no effect

# Variants of: B1
# Conditions: with cdc73_human CDC73, Q6P1J9
row,Variant,effect of a mutation on the interaction
1,Y87C,with no effect

# Variants of: B1
# Conditions: with cdk4_human CDK4, P11802
row,Variant,effect of a mutation on the interaction
1,Y87C,with no effect

# Variants of: B1
# Conditions: with cdk6_human CDK6, Q00534
# Sequence of cdk6_human CDK6, Q00534 (Q00534 whole entry): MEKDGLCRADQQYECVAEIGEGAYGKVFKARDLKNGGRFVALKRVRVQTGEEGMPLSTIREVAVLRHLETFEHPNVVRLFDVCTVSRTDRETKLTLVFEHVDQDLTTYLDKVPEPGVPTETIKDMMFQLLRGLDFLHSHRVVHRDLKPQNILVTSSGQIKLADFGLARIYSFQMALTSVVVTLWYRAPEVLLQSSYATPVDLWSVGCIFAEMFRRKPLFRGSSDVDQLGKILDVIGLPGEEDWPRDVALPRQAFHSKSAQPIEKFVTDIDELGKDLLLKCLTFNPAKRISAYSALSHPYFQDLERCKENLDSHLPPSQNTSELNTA
row,Variant,effect of a mutation on the interaction
1,Y87C,with no effect

# Variants of: B1
# Conditions: with cdn2c_human CDKN2C
row,Variant,effect of a mutation on the interaction
1,Y87C,with no effect

# Variants of: B1
# Conditions: with chd1l_human CHD1L
row,Variant,effect of a mutation on the interaction
1,Y87C,with no effect

# Variants of: B1
# Conditions: with chd2_human CHD2, O14647
# Sequence of chd2_human CHD2, O14647 (O14647 whole entry): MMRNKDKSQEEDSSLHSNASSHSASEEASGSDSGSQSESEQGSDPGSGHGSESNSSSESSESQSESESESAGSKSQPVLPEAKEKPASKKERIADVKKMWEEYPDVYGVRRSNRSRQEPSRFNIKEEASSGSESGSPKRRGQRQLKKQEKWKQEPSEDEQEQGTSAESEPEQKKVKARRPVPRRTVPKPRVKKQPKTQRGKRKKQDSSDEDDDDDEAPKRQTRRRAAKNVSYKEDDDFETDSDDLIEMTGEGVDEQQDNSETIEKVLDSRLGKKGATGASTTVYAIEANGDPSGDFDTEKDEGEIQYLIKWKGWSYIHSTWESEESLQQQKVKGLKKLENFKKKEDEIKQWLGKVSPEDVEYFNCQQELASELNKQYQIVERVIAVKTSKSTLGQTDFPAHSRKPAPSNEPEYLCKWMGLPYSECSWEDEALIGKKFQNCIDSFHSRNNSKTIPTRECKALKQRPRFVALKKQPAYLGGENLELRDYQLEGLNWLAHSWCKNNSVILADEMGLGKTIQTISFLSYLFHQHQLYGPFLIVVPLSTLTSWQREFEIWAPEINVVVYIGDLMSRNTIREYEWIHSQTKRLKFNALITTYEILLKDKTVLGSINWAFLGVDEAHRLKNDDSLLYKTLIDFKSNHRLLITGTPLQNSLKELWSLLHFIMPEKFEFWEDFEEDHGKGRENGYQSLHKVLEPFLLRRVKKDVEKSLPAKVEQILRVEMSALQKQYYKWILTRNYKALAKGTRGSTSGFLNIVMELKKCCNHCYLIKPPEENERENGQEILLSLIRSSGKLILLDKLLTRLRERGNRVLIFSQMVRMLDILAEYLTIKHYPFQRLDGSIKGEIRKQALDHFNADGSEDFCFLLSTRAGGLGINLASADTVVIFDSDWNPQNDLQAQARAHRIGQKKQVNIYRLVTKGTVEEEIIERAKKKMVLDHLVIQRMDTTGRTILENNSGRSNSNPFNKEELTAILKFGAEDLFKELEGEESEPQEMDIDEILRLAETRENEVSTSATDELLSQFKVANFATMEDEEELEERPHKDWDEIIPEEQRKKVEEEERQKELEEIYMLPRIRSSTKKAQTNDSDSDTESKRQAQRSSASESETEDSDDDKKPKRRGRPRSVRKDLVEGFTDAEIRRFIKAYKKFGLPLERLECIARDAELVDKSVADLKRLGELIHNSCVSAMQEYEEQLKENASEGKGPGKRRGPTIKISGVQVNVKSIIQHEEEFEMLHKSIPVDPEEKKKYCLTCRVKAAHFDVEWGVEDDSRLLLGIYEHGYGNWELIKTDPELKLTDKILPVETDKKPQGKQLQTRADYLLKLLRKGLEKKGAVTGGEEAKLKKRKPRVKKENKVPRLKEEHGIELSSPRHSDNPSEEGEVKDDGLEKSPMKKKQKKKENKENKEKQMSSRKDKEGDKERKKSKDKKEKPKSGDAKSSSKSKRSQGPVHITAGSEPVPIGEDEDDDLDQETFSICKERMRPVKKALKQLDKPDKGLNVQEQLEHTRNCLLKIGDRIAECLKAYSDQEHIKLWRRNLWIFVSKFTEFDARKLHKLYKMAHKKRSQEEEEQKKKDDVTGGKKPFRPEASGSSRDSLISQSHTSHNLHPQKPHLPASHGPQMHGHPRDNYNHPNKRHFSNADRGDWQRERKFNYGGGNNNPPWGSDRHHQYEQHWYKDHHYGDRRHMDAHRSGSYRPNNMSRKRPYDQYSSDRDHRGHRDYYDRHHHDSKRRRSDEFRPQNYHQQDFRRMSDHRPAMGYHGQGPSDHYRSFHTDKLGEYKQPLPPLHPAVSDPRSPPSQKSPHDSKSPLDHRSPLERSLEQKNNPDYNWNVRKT
row,Variant,effect of a mutation on the interaction
1,Y87C,with no effect

# Variants of: B1
# Conditions: with chk2_human CHEK2, O96017
# Sequence of chk2_human CHEK2, O96017 (O96017 whole entry): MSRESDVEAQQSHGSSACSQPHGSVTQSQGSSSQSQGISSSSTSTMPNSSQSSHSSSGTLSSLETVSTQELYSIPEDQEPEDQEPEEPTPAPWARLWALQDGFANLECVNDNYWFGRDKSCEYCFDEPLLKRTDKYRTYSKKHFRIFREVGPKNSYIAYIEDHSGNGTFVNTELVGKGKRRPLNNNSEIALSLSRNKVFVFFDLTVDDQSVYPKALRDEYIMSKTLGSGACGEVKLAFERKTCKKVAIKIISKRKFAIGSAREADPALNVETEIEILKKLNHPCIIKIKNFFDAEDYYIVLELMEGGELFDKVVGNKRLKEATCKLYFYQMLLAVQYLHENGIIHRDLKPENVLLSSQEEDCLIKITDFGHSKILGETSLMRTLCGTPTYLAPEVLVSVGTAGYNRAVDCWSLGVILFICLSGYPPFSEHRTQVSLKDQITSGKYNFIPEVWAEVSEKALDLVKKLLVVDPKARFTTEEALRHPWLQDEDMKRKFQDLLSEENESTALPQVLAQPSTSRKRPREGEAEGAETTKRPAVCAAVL
row,Variant,effect of a mutation on the interaction
1,Y87C,with no effect

# Variants of: B1
# Conditions: with ch3l1_human CHI3L1, P36222
row,Variant,effect of a mutation on the interaction
1,Y87C,with no effect

# Variants of: B1
# Conditions: with csf1r_human CSF1R
row,Variant,effect of a mutation on the interaction
1,Y87C,with no effect

# Variants of: B1
# Conditions: with ctla4_human CTLA4, P16410
row,Variant,effect of a mutation on the interaction
1,Y87C,with no effect

# Variants of: B1
# Conditions: with cul3_human CUL3, Q13618
row,Variant,effect of a mutation on the interaction
1,Y87C,with no effect

# Variants of: B1
# Conditions: with cul4b_human CUL4B
row,Variant,effect of a mutation on the interaction
1,Y87C,with no effect

# Variants of: B1
# Conditions: with daxx_human DAXX
row,Variant,effect of a mutation on the interaction
1,Y87C,with no effect

# Variants of: B1
# Conditions: with ddx5_human DDX5, P17844
row,Variant,effect of a mutation on the interaction
1,Y87C,with no effect

# Variants of: B1
# Conditions: with dll3_human DLL3, Q9NYJ7
row,Variant,effect of a mutation on the interaction
1,Y87C,with no effect

# Variants of: B1
# Conditions: with duox2_human DUOX2, Q9NRD8
row,Variant,effect of a mutation on the interaction
1,Y87C,with no effect

# Variants of: B1
# Conditions: with e2f1_human E2F1, Q01094
row,Variant,effect of a mutation on the interaction
1,Y87C,with no effect

# Variants of: B1
# Conditions: with e2f2_human E2F2, Q14209
row,Variant,effect of a mutation on the interaction
1,Y87C,with no effect

# Variants of: B1
# Conditions: with e2f3_human E2F3, O00716
row,Variant,effect of a mutation on the interaction
1,Y87C,with no effect

# Variants of: B1
# Conditions: with e2f5_human E2F5, Q15329
# Sequence of e2f5_human E2F5, Q15329 (Q15329 whole entry): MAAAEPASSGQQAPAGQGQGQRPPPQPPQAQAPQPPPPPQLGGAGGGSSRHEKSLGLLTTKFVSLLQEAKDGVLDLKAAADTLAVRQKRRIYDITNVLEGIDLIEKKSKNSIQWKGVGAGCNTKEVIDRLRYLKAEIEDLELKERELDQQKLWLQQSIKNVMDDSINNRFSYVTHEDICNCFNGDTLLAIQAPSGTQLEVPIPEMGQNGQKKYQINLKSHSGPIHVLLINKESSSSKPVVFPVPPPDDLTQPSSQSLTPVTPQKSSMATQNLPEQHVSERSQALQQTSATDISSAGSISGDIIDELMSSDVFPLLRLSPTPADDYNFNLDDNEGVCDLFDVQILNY
row,Variant,effect of a mutation on the interaction
1,Y87C,with no effect

# Variants of: B1
# Conditions: with e2f6_human E2F6, O75461
row,Variant,effect of a mutation on the interaction
1,Y87C,with no effect

# Variants of: B1
# Conditions: with e2f8_human E2F8, A0AVK6
row,Variant,effect of a mutation on the interaction
1,Y87C,with no effect

# Variants of: B1
# Conditions: with if4e_human EIF4E
row,Variant,effect of a mutation on the interaction
1,Y87C,with no effect

# Variants of: B1
# Conditions: with epha7_human EPHA7, Q15375
row,Variant,effect of a mutation on the interaction
1,Y87C,with no effect

# Variants of: B1
# Conditions: with ephb1_human EPHB1, P54762
row,Variant,effect of a mutation on the interaction
1,Y87C,with no effect

# Variants of: B1
# Conditions: with erbb3_human ERBB3, P21860
row,Variant,effect of a mutation on the interaction
1,Y87C,with no effect

# Variants of: B1
# Conditions: with erbb4_human ERBB4, Q15303
row,Variant,effect of a mutation on the interaction
1,Y87C,with no effect

# Variants of: B1
# Conditions: with esr1_human ESR1, P03372
row,Variant,effect of a mutation on the interaction
1,Y87C,with no effect

# Variants of: B1
# Conditions: with etv1_human ETV1, P50549
row,Variant,effect of a mutation on the interaction
1,Y87C,with no effect

# Variants of: B1
# Conditions: with ezh1_human EZH1, Q92800
# Sequence of ezh1_human EZH1, Q92800 (Q92800 whole entry): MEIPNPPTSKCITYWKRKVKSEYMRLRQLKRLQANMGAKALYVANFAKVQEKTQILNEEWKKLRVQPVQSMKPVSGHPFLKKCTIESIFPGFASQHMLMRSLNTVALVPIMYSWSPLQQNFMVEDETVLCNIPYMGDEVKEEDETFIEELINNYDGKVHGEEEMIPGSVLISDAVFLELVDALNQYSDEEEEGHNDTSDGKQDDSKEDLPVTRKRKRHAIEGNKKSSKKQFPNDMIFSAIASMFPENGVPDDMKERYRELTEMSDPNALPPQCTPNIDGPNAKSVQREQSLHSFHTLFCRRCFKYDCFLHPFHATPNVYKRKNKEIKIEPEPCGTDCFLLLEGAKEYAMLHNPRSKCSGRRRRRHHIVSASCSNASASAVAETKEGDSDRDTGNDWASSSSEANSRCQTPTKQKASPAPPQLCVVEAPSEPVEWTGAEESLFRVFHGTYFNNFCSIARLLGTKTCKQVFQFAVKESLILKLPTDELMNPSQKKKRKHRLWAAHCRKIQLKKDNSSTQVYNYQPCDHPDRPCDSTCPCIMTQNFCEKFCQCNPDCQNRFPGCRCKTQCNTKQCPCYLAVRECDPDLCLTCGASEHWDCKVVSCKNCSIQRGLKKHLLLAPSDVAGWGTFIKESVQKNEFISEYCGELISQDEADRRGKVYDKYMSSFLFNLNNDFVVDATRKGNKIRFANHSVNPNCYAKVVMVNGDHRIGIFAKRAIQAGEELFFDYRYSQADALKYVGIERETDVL
row,Variant,effect of a mutation on the interaction
1,Y87C,with no effect

# Variants of: B1
# Conditions: with ezh2_human EZH2, Q15910
row,Variant,effect of a mutation on the interaction
1,Y87C,with no effect

# Variants of: B1
# Conditions: with facd2_human FANCD2, Q9BXW9
row,Variant,effect of a mutation on the interaction
1,Y87C,with no effect

# Variants of: B1
# Conditions: with tnr6_human FAS
row,Variant,effect of a mutation on the interaction
1,Y87C,with no effect

# Variants of: B1
# Conditions: with fgf19_human FGF19, O95750
row,Variant,effect of a mutation on the interaction
1,Y87C,with no effect

# Variants of: B1
# Conditions: with fgfp1_human FGFBP1, Q14512
row,Variant,effect of a mutation on the interaction
1,Y87C,with no effect

# Variants of: B1
# Conditions: with fgfr4_human FGFR4, P22455
row,Variant,effect of a mutation on the interaction
1,Y87C,with no effect

# Variants of: B1
# Conditions: with fumh_human FH
row,Variant,effect of a mutation on the interaction
1,Y87C,with no effect

# Variants of: B1
# Conditions: with foxo3_human FOXO3, O43524
row,Variant,effect of a mutation on the interaction
1,Y87C,with no effect

# Variants of: B1
# Conditions: with fzr1_human FZR1, Q9UM11
row,Variant,effect of a mutation on the interaction
1,Y87C,with no effect

# Variants of: B1
# Conditions: with gbra6_human GABRA6, Q16445
row,Variant,effect of a mutation on the interaction
1,Y87C,with no effect

# Variants of: B1
# Conditions: with gata1_human GATA1, P15976
# Sequence of gata1_human GATA1, P15976 (P15976 whole entry): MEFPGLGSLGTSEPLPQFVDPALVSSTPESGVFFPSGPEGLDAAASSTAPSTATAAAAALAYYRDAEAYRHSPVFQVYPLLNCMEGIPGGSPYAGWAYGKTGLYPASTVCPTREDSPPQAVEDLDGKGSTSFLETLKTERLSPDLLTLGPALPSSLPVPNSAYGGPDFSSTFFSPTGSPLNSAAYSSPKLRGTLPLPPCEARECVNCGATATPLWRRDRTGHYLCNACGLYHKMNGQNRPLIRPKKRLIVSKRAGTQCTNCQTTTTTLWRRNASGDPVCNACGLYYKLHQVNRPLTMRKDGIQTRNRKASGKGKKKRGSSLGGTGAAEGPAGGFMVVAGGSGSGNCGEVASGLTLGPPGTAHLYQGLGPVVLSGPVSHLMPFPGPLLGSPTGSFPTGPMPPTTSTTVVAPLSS
row,Variant,effect of a mutation on the interaction
1,Y87C,with no effect

# Variants of: B1
# Conditions: with p66b_human GATAD2B
row,Variant,effect of a mutation on the interaction
1,Y87C,with no effect

# Variants of: B1
# Conditions: with gna11_human GNA11, P29992
row,Variant,effect of a mutation on the interaction
1,Y87C,with no effect

# Variants of: B1
# Conditions: with gna13_human GNA13, Q14344
row,Variant,effect of a mutation on the interaction
1,Y87C,with no effect

# Variants of: B1
# Conditions: with gnaq_human GNAQ
row,Variant,effect of a mutation on the interaction
1,Y87C,with no effect

# Variants of: B1
# Conditions: with grm1_human GRM1, Q13255
row,Variant,effect of a mutation on the interaction
1,Y87C,with no effect

# Variants of: B1
# Conditions: with grm3_human GRM3, Q14832
row,Variant,effect of a mutation on the interaction
1,Y87C,with no effect

# Variants of: B1
# Conditions: with gsk3b_human GSK3B
row,Variant,effect of a mutation on the interaction
1,Y87C,with no effect

# Variants of: B1
# Conditions: with gtpb4_human GTPBP4, Q9BZE4
row,Variant,effect of a mutation on the interaction
1,Y87C,with no effect

# Variants of: B1
# Conditions: with h33_human H3-3A
row,Variant,effect of a mutation on the interaction
1,Y87C,with no effect

# Variants of: B1
# Conditions: with hdac1_human HDAC1, Q13547
row,Variant,effect of a mutation on the interaction
1,Y87C,with no effect

# Variants of: B1
# Conditions: with hdac3_human HDAC3, O15379
row,Variant,effect of a mutation on the interaction
1,Y87C,with no effect

# Variants of: B1
# Conditions: with hgf_human HGF
row,Variant,effect of a mutation on the interaction
1,Y87C,with no effect

# Variants of: B1
# Conditions: with h31_human H3C1, P68431
row,Variant,effect of a mutation on the interaction
1,Y87C,with no effect

# Variants of: B1
# Conditions: with hlab_human HLA-B
row,Variant,effect of a mutation on the interaction
1,Y87C,with no effect

# Variants of: B1
# Conditions: with hnf1a_human HNF1A
row,Variant,effect of a mutation on the interaction
1,Y87C,with no effect

# Variants of: B1
# Conditions: with igf1r_human IGF1R
row,Variant,effect of a mutation on the interaction
1,Y87C,with no effect

# Variants of: B1
# Conditions: with il7ra_human IL7R
row,Variant,effect of a mutation on the interaction
1,Y87C,with no effect

# Variants of: B1
# Conditions: with int12_human INTS12, Q96CB8
row,Variant,effect of a mutation on the interaction
1,Y87C,with no effect

# Variants of: B1
# Conditions: with ist1_human IST1, P53990
row,Variant,effect of a mutation on the interaction
1,Y87C,with no effect
